# Source: patent publication US20030199036
# Target: S. pombe cdc25 tagged with a triple tandem copy of the hemagglutinin epitope (UniProt P06652)
substance,measurement,value
Schizosaccharomyces pombe pub1 (untagged),"accumulation of cdc25 higher molecular weight (ubiquitinated) species in mts2 mutants, pub1 wild type (SP 1212) against pub1 disruption (SP 1213), Western blot",We estimate that disruption of pub1 reduces the accumulation of cdc25 higher molecular weight species at least 10 fold.
